Holding throughout (experiment): Kinase Profiling Assay
Common to all, as to format: biochemical
What all share (settings): 100 μM peptide

The target in one test is T1, Src(1-530)(h) (Homo sapiens, UniProt P12931).
T1 construct: Src(1-530)
The gist of the method:
(§1)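 Selectivity profiling: MK2-targeting peptides tested on 266 human kinases. All activity determinations done in duplicate.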

In a further test the target is Yes(h) (Homo sapiens, UniProt P07947). Summed up:
as §1

The next test addresses STK33(h) (Homo sapiens, UniProt Q9BYT3). The gist of the method: as §1
Another test deals with PAK2(h) (Homo sapiens, UniProt Q13177). The gist of the method: as §1
For another test, the target named is T2, Mer(h) (Homo sapiens, UniProt Q12866).
T2 sequence (Q12866 21-999): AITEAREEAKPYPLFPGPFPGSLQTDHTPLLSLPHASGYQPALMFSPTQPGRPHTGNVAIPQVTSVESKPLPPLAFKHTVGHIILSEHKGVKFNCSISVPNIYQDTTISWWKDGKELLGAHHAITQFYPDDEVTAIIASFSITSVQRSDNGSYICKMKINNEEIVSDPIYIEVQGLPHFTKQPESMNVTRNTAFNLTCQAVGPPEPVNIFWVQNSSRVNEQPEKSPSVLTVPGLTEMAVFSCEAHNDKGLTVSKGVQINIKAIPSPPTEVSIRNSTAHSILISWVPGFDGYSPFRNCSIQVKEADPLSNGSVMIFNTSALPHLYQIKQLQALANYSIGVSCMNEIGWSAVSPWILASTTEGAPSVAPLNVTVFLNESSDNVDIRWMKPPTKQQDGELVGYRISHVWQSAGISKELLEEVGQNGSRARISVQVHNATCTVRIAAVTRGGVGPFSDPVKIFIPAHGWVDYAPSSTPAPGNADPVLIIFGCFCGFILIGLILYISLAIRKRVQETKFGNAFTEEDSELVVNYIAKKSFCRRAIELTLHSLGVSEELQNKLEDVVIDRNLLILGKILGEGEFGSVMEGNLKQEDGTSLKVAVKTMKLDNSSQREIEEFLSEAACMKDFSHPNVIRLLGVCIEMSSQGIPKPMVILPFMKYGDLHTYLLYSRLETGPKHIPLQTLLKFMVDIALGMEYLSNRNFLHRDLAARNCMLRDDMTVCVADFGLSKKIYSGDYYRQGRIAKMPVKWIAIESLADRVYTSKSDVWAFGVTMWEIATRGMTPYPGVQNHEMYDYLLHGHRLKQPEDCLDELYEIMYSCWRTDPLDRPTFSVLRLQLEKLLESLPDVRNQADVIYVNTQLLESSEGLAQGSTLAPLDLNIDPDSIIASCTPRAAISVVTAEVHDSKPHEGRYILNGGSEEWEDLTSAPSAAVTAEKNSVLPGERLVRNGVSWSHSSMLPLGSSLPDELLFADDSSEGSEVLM
Summed up: as §1

A further test has as its target NEK6(h) (Homo sapiens, UniProt Q9HC98). The gist of the method:
as §1

For the next test, the target named is Met(Y1248H)(h) (Homo sapiens, UniProt P08581, Y1230H). Summed up:
as §1

The target in a further test is T3, EphB3(h) (Homo sapiens, UniProt P54753).
T3 sequence (P54753 34-998): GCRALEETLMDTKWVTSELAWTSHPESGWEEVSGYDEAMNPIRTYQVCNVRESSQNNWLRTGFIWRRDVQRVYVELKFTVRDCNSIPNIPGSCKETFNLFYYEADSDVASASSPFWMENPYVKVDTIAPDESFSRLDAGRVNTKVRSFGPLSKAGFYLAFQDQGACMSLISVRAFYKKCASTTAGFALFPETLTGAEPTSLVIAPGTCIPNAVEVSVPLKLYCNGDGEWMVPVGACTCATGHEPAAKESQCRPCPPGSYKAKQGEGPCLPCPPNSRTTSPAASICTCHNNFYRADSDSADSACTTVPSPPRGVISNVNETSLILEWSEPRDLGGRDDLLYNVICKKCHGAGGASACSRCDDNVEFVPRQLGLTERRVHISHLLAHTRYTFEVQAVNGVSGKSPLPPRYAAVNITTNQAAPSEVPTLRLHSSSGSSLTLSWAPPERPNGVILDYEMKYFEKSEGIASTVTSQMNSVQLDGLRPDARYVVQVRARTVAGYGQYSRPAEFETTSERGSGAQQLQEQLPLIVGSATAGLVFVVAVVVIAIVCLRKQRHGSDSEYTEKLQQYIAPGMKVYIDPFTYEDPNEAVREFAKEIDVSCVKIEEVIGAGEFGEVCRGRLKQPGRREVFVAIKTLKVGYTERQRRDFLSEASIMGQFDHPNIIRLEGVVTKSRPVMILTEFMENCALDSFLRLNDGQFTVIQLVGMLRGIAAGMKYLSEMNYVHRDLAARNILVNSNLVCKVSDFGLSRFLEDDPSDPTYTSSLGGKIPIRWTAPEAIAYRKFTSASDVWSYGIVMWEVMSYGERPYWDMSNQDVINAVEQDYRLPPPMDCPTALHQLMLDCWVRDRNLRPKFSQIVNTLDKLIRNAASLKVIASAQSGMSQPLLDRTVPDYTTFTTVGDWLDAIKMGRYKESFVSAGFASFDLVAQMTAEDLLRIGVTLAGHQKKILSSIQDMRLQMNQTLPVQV
The gist of the method: as §1

NEK6(h), sequence (Q9HC98 whole entry): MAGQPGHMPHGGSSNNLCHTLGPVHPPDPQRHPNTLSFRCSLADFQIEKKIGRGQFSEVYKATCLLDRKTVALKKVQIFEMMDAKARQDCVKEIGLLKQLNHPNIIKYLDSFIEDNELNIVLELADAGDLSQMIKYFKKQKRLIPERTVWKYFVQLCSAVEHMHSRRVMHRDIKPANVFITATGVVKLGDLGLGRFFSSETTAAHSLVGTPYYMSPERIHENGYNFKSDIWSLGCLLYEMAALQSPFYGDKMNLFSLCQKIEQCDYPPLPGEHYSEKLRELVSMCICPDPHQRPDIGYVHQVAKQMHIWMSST
PAK2(h), sequence (Q13177 whole entry): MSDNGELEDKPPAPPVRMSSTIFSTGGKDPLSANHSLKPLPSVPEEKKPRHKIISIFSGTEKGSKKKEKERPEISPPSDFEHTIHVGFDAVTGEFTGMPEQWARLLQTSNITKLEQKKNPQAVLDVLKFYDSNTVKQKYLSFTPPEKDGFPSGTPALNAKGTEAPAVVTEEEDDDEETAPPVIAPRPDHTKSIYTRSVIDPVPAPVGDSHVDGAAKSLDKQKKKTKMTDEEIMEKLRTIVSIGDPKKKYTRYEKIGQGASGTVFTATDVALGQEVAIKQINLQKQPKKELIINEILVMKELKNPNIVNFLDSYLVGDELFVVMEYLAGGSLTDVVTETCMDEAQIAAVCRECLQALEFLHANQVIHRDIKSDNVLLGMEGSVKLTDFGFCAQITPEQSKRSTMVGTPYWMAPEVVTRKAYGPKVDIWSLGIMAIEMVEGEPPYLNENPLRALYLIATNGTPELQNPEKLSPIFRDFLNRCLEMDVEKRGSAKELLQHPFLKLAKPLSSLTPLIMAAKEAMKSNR
STK33(h), sequence (Q9BYT3 whole entry): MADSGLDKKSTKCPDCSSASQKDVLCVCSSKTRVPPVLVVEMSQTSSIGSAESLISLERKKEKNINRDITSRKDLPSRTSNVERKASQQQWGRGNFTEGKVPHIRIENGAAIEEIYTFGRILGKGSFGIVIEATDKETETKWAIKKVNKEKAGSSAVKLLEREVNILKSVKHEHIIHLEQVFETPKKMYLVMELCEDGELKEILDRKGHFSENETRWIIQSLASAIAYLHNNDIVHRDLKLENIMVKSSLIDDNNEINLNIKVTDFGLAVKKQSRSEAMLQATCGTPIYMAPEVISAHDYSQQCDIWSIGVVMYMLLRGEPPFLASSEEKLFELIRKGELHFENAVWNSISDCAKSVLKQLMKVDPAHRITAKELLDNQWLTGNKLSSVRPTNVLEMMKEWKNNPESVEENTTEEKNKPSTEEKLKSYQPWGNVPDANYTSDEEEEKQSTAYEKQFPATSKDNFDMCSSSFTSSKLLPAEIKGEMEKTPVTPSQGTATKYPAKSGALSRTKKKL
Yes(h), sequence (P07947 whole entry): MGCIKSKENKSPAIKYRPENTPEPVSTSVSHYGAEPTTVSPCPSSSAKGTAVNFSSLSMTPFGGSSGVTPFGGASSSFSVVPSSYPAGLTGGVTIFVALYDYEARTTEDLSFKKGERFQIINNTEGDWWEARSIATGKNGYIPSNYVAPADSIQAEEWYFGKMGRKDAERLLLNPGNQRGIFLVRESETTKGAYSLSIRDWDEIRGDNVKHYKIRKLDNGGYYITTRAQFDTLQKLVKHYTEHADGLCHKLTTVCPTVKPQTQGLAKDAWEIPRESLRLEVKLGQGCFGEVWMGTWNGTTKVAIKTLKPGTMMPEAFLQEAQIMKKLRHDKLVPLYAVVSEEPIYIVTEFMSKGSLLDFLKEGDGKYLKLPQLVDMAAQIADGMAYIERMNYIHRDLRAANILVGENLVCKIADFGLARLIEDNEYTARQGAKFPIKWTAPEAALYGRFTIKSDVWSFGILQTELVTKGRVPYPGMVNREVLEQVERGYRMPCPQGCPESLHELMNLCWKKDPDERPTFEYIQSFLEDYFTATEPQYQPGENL

“YARAAARQARAKALNRQLGVA (Mammalian) [MMI-0200]”: in the test with Src(1-530)(h), the “Src(1-530)(h) % activity” value stood at 75%. The “Yes(h) % activity” value in the test with Yes(h) is reported as 93%. In the test with STK33(h), the “STK33(h) % activity” value came out at 98%. In addition, the “PAK2(h) % activity” value in the test with PAK2(h) is 69%. Moreover, the “Mer(h) % activity” value in the test with Mer(h) turned out to be 90%. Further, the “NEK6(h) % activity” value with NEK6(h) stood at 98%. Moreover, the “Met(Y1248H)(h) % activity” value in the test with Met(Y1248H)(h) turned out to be 153%. Also, the “EphB3(h) % activity” value in the test with EphB3(h) stood at 128%.
With “HRRIKAWLKKIKALARQLGVAA (Mammalian) [MMI-0500]”, in the test with Src(1-530)(h), the “Src(1-530)(h) % activity” value was determined as 21%. Moreover, the “STK33(h) % activity” value in the test with STK33(h) was found to be 16%. Also, the “PAK2(h) % activity” value in the test with PAK2(h) was 44%. For the same sequence, the “Mer(h) % activity” value with Mer(h) stood at 17%. In addition, the “NEK6(h) % activity” value in the test with NEK6(h) stood at 49%. Further, the “Met(Y1248H)(h) % activity” value with Met(Y1248H)(h) is listed as 126%. The “EphB3(h) % activity” value with EphB3(h) was 79%.
For the sequence KAFAKLAARLYRKALARQLGVAA [MMI-0400], the “Src(1-530)(h) % activity” value with Src(1-530)(h) was found to be 19%. Further, the “Yes(h) % activity” value with Yes(h) was determined as 14%. The “STK33(h) % activity” value with STK33(h) is 52%. Further, the “PAK2(h) % activity” value with PAK2(h) stood at 59%. The “Mer(h) % activity” value in the test with Mer(h) amounted to 50%. Further, the “NEK6(h) % activity” value with NEK6(h) came out at 85%. Also, the “Met(Y1248H)(h) % activity” value with Met(Y1248H)(h) was found to be 63%. In the test with EphB3(h), the “EphB3(h) % activity” value was 47%.
In the case of FAKLAARLYRKALARQLGVAA [MMI-0300], the “Src(1-530)(h) % activity” value with Src(1-530)(h) is 23%. Further, in the test with Yes(h), the “Yes(h) % activity” value was found to be 67%. Moreover, the “STK33(h) % activity” value with STK33(h) was determined as 45%. For the same sequence, the “PAK2(h) % activity” value with PAK2(h) amounted to 65%. Further, the “Mer(h) % activity” value with Mer(h) amounted to 52%. Also, the “NEK6(h) % activity” value with NEK6(h) was found to be 82%. In the test with EphB3(h), the “EphB3(h) % activity” value is on record as 62%.
